What was measured:
[1] = target: T1, HUB2, At1g55250, Arabidopsis thaliana (Arabidopsis thaliana, UniProt Q9C895 1-900); test: tandem affinity purification with NTAP-tagged HUB1pm
T1 construct: As prey the endogenous protein of Arabidopsis cell culture; as bait N-terminal GS-TAP fusion; in yeast two-hybrid an AD fusion; also called AAG51572.1
T1 sequence: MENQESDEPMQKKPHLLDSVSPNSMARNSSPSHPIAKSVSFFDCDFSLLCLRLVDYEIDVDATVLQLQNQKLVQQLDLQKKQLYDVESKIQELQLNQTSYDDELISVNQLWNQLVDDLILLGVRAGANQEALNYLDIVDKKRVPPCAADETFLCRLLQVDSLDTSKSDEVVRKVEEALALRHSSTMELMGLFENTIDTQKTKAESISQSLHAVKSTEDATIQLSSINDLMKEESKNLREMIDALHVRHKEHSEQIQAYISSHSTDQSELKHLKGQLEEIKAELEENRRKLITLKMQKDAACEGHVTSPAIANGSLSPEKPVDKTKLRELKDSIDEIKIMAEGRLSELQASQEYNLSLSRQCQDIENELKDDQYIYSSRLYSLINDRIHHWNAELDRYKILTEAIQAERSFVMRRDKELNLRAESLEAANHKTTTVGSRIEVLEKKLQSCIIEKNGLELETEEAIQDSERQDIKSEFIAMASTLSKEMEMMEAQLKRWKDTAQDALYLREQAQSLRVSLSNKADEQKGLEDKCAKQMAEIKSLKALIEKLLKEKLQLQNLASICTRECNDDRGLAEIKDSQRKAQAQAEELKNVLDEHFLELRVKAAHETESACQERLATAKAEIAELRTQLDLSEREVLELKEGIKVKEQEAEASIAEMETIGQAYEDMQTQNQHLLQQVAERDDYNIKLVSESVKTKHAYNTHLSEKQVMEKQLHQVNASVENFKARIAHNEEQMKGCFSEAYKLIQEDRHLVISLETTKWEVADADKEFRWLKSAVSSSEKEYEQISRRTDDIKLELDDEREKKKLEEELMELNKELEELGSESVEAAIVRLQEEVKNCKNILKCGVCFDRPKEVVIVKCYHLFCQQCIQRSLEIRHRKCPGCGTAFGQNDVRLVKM
Experimental: Because the RING proteins have their functionally important domain at the C-terminus, an N-terminal fusion was prepared instead of the traditional C-terminal fusion by cloning both full length and the point mutant form of HUB1 (HUB1pm, HUB1fl). The Arabidopsis cell cultures were transformed with the two constructs and cultivated on 10 litre scale, harvested and purified by TAP (Van Leene et al., Mol. Cell. Proteomics 6, 1226-38, 2007). The protein extracts were separated on 1-D SDS-PAGE gels and isolated from gel for protein identification by mass spectrometry (Laukens et al., Proteomics. 4, 720-7, 2004, Van Leene et al., 2007). Two cut offs were used resulting in “confirmed” and “to be confirmed” candidate interactor lists (Table I).
In the data set of confirmed interactors TAP HUB1 and HUB2 were present, […] the dimer formation between the homologues. In addition, the acetyltransferase GCN5, RNA binding proteins and a KH domain protein were identified as HUB1 interacting proteins. Most of these proteins are known to be localized in nucleus or nucleoli. GFP constructs of HUB1 have also been localized to nucleus (Liu et al., 2007). When HUB1pm was used for TAP purification no HUB2 could be identified as an interacting protein.

B1: HUB1pm (HUB1 point mutant, Cys residues nr 1 and 2 of the C3HC4 RING domain changed into Ser) (enzyme)
chain: MASTGEPDRKRRHFSSISPSEAAAAVKKQPFFWPSSEDKLDTAVLQFQNLKLSQKLEAQQVECSILEDKLSQIKEKQLPYNSSLKTVHKSWEKLTASVESCSVRVSDSSSGAHRFVNKEDGSSPAVKNDFINRLLETGATESSSSNICSNQMEENGVNTSSQMTQTLYNLVAATEDLRCLKDELYPTVLRTNLGKDLCGQLALSELESEIKSFRGDLDDVLVKFKSLSRELQSHRDADAKVRVDLKRIRGELEDEVVELQQCNGDLSALRAERDATAGAFFPVLSLGNKLATSDRERDKQRDLQDMETVLKELTVLASGRLQQLKNLHEERTKMLGKMSNLQNKSKSVRCISSSQACLSLKDQLEKSKEAVFQYMALLEKLQVEKDSIVWKEREINIKNELGDVSRKTSAVTDSRMASLDSEIQKQLDEKMRIKTRLGNISRERGRKEIFADMKALISSFPEEMSSMRSQLNNYKETAGGIHSLRADVQSLSGVLCRKTKEYEALQLRSADYASQLGDLNATVCDLKNSHEELKLFLDMYKRESTDARDIAEAKEQEYRAWAHVQSLKSSLDEQNLELRVKAANEAEAVSQQMLAAAEAEIADLRQKMDDCKRDVAKHSDILKSKHEEHGTYLSEIQTIGSAYEDIVPQNQRLLLQVTERDDYNIKLFLEGITSRQMQDTLLIDKYIMDKDIQQGSAYASFLSKKSSRIEDQLRFCTDQFQKLAEDKYQKSVSLENLQKKRADIGNGLEQARSRLEESHSKVEQSRLDYGALELELEIERFNRRRIEEEMEIAKKKVSRLRSLIEGSSAIQKLRQELSEFKEILKSKASNDRPKEVVITKCYHLFCNPCVQKLTGTRQKKCPTCSASFGPNDIKPIYI
notes: In TAP N-terminally TAP-tagged; also called HUBpm; At2g44950 Arabidopsis thaliana point mutation
Does B1 bind [1]?
Result: no binding

What about the “monoubiquitination of histone H2B in the in vitro ubiquitination assay (protein gel blot)” value (histone H2B) of the same binder?
Its value is “shift of H2B by 10 kDa”.
